In patent US12410262B2, “Peptide conjugates of cytotoxins as therapeutics” (Cybrexa 2, Inc., priority 2019, dated 2025):

Key:
[1] = Bone marrow toxicity study in a mouse model; assay type: in vivo, athymic nude Foxn^nu mice; details: 2.6 and 5.2 μmoles/kg (10, 20 mg/kg) IP once daily for 4 days
Method: Six-week-old female athymic nude Foxn^nu mice were obtained from Taconic Labs (Cat #NCRNU-F) and were housed 5 per cage on Alpha-Dri bedding in a disposable caging system (Innovive). Human HCT116 cancer cells derived from colorectal carcinoma were diluted 1:1 in Phenol Red-free Matrigel and subcutaneously implanted into the left flank of each mouse at a density of 2.5×10^6 cells in 100 μL. When xenografts reached a minimal volume of 200 mm^3, mice were administered intraperitoneal doses of vehicle or 2.6 or 5.2 μmoles/kg of either unconjugated exatecan (equivalent to 1.15 or 2.3 mg/kg exatecan, respectively) or Compound 11 (equivalent to 10 or 20 mg/kg Compound 11, respectively). Compounds were administered once daily for 4 days.
Tumor bearing mice were euthanized by cervical dislocation 6 hours after the last dose. Femurs were removed, and bone marrow was extruded into 50 mL conical tubes by flushing the bones with a 23-gauge needle fitted on a 5 cc syringe containing PBS+2% fetal bovine serum. Bone marrow was homogenized by gentle pipetting and filtered through 100 μm nylon mesh filters and cells were pelleted by centrifugation at 1200 rpm for 5 minutes at 4° C. Red blood cells were lysed with 3 mL of lysis buffer for 2 minutes at room temperature. […] Cell pellets were suspended in 5 mL of PBS and cell count was assessed by trypan blue exclusion. […]

[2] = Gastric toxicity study in a mouse model; assay type: in vivo, athymic nude Foxn^nu mice; details: 5.2 μmoles/kg (20 mg/kg) IP once daily for 4 days
Method: Six-week-old female athymic nude Foxn^nu mice were obtained from Taconic Labs (Cat #NCRNU-F) and were housed 5 per cage on Alpha-Dri bedding in a disposable caging system (Innovive). Human HCT116 cells derived from colorectal carcinoma were diluted 1:1 in Phenol Red-free Matrigel and subcutaneously implanted into the left flank of each mouse at a density of 2.5×10^6 cells in 100 μL. When xenografts reached a minimal volume of 300 mm^3, mice were administered intraperitoneal doses of vehicle, or 5.2 μmoles/kg of either unconjugated exatecan (equivalent to 2.3 mg/kg exatecan) or Compound 11 (equivalent to 20 mg/kg Compound 11). Compounds were administered once daily for 4 days. At 6 hours after administration of the last dose, mice were euthanized by cervical dislocation and gross necropsy was conducted. Photographs were taken of the stomachs both in situ and ex vivo.

[3] = Glutathione cleavage study; assay type: in vitro ADME; details: Tris buffer with 10 mM glutathione, Glutathione Challenge (10 mM), 100 μM conjugate, Tris pH 7.5, 37° C.
Procedure, shortened: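 Conjugate stocks at 20 mM in 100% DMSO were diluted in 100 mM Tris, pH 7.5, to a final 100 μM. Freshly made glutathione was added to 10 mM, and samples were incubated at 37° C. for up to 24 hrs. Samples were extracted with phosphoric acid and acetonitrile/0.1% TFA, centrifuged, and analyzed by HPLC, with peak areas compared to the time-0 conjugate peak.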

[4] = Plasma stability studies; assay type: in vitro ADME; details: rat plasma, 100 μM conjugate, 37° C.
Procedure, shortened: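 Conjugate at 100 μM final in rat plasma (diluted from DMSO stock via 100 mM Tris, pH 7.5), incubated at 37° C for up to 24 h, sampled at 0, 4 and 24 h. Samples acid/acetonitrile-extracted and analysed by HPLC; remaining conjugate expressed as peak area relative to time 0 ×100.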

With `CC[C@@]1(O)C(=O)OCc2c1cc1n(c2=O)Cc2c-1nc1cc(F)c(C)c3c1c2[C@@H](NC(=O)O[C@H]1CCCC[C@@H]1SSC[C@H](NC(=O)[C@H](Cc1c[nH]c2ccccc12)NC(=O)[C@H](CC(C)C)NC(=O)[C@H](CC(C)C)NC(=O)[C@H](CC(=O)O)NC(=O)[C@H](CC(C)C)NC(=O)[C@H](CC(C)C)NC(=O)[C@H](CC(C)C)NC(=O)[C@@H](NC(=O)[C@H](CC(=O)O)NC(=O)[C@@H](NC(=O)[C@@H]1CCCN1C(=O)[C@H](Cc1ccccc1)NC(=O)[C@H](CC(C)C)NC(=O)[C@H](CC(C)C)NC(=O)[C@H](CC(=O)O)NC(=O)[C@H](CC(C)C)NC(=O)[C@H](Cc1ccc(O)cc1)NC(=O)[C@H](C)NC(=O)[C@H](CCCNC(=N)N)NC(=O)[C@H](Cc1c[nH]c2ccccc12)NC(=O)[C@@H]1CCCN1C(=O)[C@H](CC(N)=O)NC(=O)[C@H](CCC(N)=O)NC(=O)[C@H](CC(=O)O)NC(=O)[C@H](CC(=O)O)NC(=O)[C@H](C)N)[C@@H](C)O)[C@@H](C)O)C(=O)NCC(=O)O)CC3` [Compound 11] the “bone marrow toxicity (total bone marrow counts from femurs)” value [1] was “did not display the bone marrow toxicity”, the “gastric toxicity (stomachs in situ and ex vivo)” value [2] was “did not display the gastric toxicity” and the remaining at 4 h, 100 µM ([3]; 4 h) was 50.1%. It also gave a remaining at 24 h, 100 µM ([3]; 24 h) of 10.2%, a remaining at 4 h, 100 µM ([4]; 4 hrs) of 108% and a remaining at 24 h, 100 µM ([4]; 24 hrs) of 107%.
